{
  "source": "patent US20240254182A1",
  "biological_target": "design 9 G-CSFR(Ig-CRH)E, tag cleaved (human) (UniProt Q99062)",
  "assay": "SPR, WT G-CSF against design 9 G-CSFR(Ig-CRH)E; steady state derived affinity constant",
  "data": [
    {"substance": "WT G-CSF, purified from insect cells, tag cleaved (from UniProt P09919 31-206) (ligand)", "values": [
      {"measurement": "KD fold change (against WT:WT)", "value": 8810, "unit": "fold"}
    ]}
  ]
}
